One substance from publication PMC10716096, “A scalable overexpression of a thermostable recombinant poly-histidine tag carboxyl esterase under lambda promoter: purification, characterization, and protein modelling” (Journal of Genetic Engineering & Biotechnology, 2023) can be followed below.

This data set deals with CCCCCCCCCCCC(=O)Oc1ccc([N+](=O)[O-])cc1. Put plainly: purified protein. The settings on record: pH 7.4, 60 °C, substrate 10-30 mM.

As usually defined, the Km is the concentration of substrate that gives half-maximal velocity. Broadly, the kcat is the maximal rate divided by the concentration of active sites. Turning to “EstB (6xHis carboxyl-esterase B) (Geobacillus thermoleovorans)”, the Km was 22.756 mM and the kcat amounted to 0.993 s⁻¹.
